Data taken from the domain aggregation screens of Martell et al. (2025).

Assay: soluble fraction after stress (log2 fold change); higher = more stays soluble; pooled small domains, quantitative proteomics
Conditions: stress: 75 degC
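Also: 20 min heating vs room temperature control held 20 min.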

First: HMGGREEAGTDIARLLGYINDIHGEELIAKLEYYQKMLGSENFAVLMSRLPDGQKKELREQNLYSEYV
Second: HMGGRRHANMSREEEAAFLAPFFEKAAQGGILVVREIRQALDAHLGRTVPLSTVYNLLHRHNWRKL
The “soluble fraction (log2)” value of the first is higher: -0.152 for the first, -3.39 for the second.

Compared with “HMGGRTITVGISENMTVKDIAQMLEEKGLIEDARLFVVQELLSAYHKEIKPGIYDLSTDMTAAQMLEIMS”, “HMGGSIDITTAPPGAKIYLDADYYGKTPKRLENISAGTYRLHLLHPEKGEVYRSVTLNEKNGTLKIDENLN” is higher in “soluble fraction (log2)” value: -0.443 for the first, 0.0541 for the second.

Compared with “HMGGTATDYYNQGRTAYDVGDYNGALMNFQEAVRLDPRYGEAYYGLGKAYEALNMQNQALDAYLSAI”, “HMGGVSTDKPLNWDADGTSKLTQEQIDYLRSTYDLSDMSKQDYYDLMADLTNMNAISIKDVISQYVK” is higher in “soluble fraction (log2)” value: -0.529 for the first, -0.0294 for the second.

“HMGGYVVVGDKDGFWSVVSTPVSKAKAEELLKDTTFPKGEKGKIVSVAEAMSHKKVIGKEYLESGGT” and “HMGHASPGNREALQFALERHQARAAEFAEKAGLSIANASTKFKQLWEQGFLMRNESVADSGGVEFLYQR” are within 0.2 log units of each other in “soluble fraction (log2)” value: 0.0752 for the first, -0.113 for the second.

Going from “HMGHEISLNNSRFLKLLNKTKISISNDDTRHYLNGIFLHLTEAHGRQFLTGVATDSHRLSSSSLEID” to “HMGHRQRRARARNRSMLEDIPGLGPKRRQQLLRQFGGLPQLMRAGVAELSQVPGISDSLARKIHAELHPES”, the “soluble fraction (log2)” value falls from -0.206 to -2.73.

Compared with “HMGHYGQMTRDLIEKAKTYEEGEEKAALVLTIANLMKRHYLTWNRATVENTLIAEQLKEMSEGALTLPEDV”, “HMGIAEGSSVFVRVLAAEDGGRYTVSFAGRRFSVLSRQALGIGSAFRADVKVEKGQVLLVPR” is lower in “soluble fraction (log2)” value: -0.956 for the first, -2.95 for the second.

“HMGIAERKEKQKLEIRNAILEASRKLIVEEGFEKVTMRKIADLIEYSPTTVYLYFKDKNEILFHLHQ” and “HMGIDVSAFSDTALEVLRLQAAGYTTREIAQQLHITQRTVKYHASENYRKLDARNLVDAVQIAQSLHI” are within 0.2 log units of each other in “soluble fraction (log2)” value: -1.54 for the first, -1.5 for the second.

Going from “HMGIEIKLLMSFMTDSGRKVSLFVTDPREDVTETEIKQVMDLIIEKNIFAPNGEDIVSAKEAKIVQT” to “HMGIERTNADTSFSVNVYGKELIITSNKPLVVNIYAIDGTLVRTEQVTIGVNTVSGLPSGIYVVGQQKVVI”, the “soluble fraction (log2)” value rises from -1.35 to -1.1.

First: HMGIIVDMSKIKQMLQLSEAGHSNRKIALELGINKETVNNYMQLIRNGRLDIRQLLKMDDPELERRFHA
Second: HMGIKLSDRQMQIVEIVKSQQPITSEQVAERLNLTRAALRSDLSILTMAGILEARPKVGYSLTGR
The “soluble fraction (log2)” value of the first is higher: -0.965 for the first, -1.97 for the second.

Compared with “HMGILPDDVKLNIKEAKKIGFPIMLKAIHGGGGRGMMIVQSEDEFADAMKITKTEAKNSFGNGDLYFEKFF”, “HMGITRQQALQQINQSASPKKILNASLGKRGSEFVWDIGYLSKSGKLNYVTYSFRSGEQLNAIKN” is lower in “soluble fraction (log2)” value: 0.408 for the first, -1.03 for the second.

Compared with “HMGIVAGGTQSIATLRAIDTTDAQLYPDKILINVEDAGLYRLDRQSTATDDGNQVIKPTVGVGRWLKMTS”, “HMGIVVDGTMTLEGVAERYGMSVGELARVIGVPPEYSNERLGRLRKSYEFEMDDIRIYIIQKQ” is lower in “soluble fraction (log2)” value: -0.15 for the first, -1.54 for the second.

Going from “HMGKAYMVPDVKNKSVNQAQLLLADKHMNGVVVDSSYVKELPAGIVLDQTPVGGMKVKEGRTVYLTINSD” to “HMGKDIYLTSGWVEKFDELNEFSNSVDNYDRLNQFGMYENAIIGDTGVIKITDEMIFDLYEKIQVPVEAGP”, the “soluble fraction (log2)” value falls from 0.156 to -0.0582.

First: HMGKEDLTAAIKKMTLNDKLDIHKIVANFQTNDSEEVITAVKWLMENNYLLKIKNNYTWNTKEK
Second: HMGKHYLLKDDNGTITIYKILEDGTQEVYEKTEISTTYLPQTDNIGIKQGIRVNGDEALNELIENF
The “soluble fraction (log2)” value of the first is lower: -0.901 for the first, -0.0623 for the second.

Going from “HMGKKGPELSENEKSIFSILSKSGSMDLTTLKEASGLSNKQWDKGIKGLGKHGLTKVIKTEDALLVEVV” to “HMGKKYVPGMAVKLSAVPLYAASTSKVPSTHVTGTYYLWDDEVVRGRLRITNLKSRVGISGQVTGWIDKDR”, the “soluble fraction (log2)” value falls from 0.0471 to -1.95.

Going from “HMGKNIQAIRYKNNMTQDQVVAKLNLMGISITKSTYAKLETNRMNIKASELVALAKLFHTDINAFFSG” to “HMGKNYYEILGITKSASEEQVRKAFRGLAMEWHPDRNRSADSEERFKEINEAYQVLIDPKKRQMYDQYGR”, the “soluble fraction (log2)” value rises from -3.12 to 0.394.

“HMGKPSSEELEALGRRTLEENVDVVEEILGGRDPKGKKIKYLEGLMMRALRGQETPEAVRRTLEELIFK” and “HMGKRGKEMQTAVLAILRASDRPYSAYELLESLKDIYPKIAPPTVYRALAALTQRGQIRRLESLNAFI” are within 0.2 log units of each other in “soluble fraction (log2)” value: -0.132 for the first, -0.221 for the second.

First: HMGKRKDFTYTGNYFSEYKNQTFPSLSSFLKLVGKYENYGTIKRRVRFGWDIDEAILRENIN
Second: HMGKSKAAQSSLVRSIMHQISDKNRGPMPLSEIIDRASIQSIDEAIVRSLVSRMKEQGEIYEPSLGTYEF
The “soluble fraction (log2)” value of the first is lower: -1.94 for the first, -0.105 for the second.

Going from “HMGKTIIQLATDYLIKNMQPKSLHDIESYVLTRKKIKKSSIGAILLSKPNIFGRTEDGLFGLRIWNNFQYT” to “HMGKTRSTDRTRRAILDAASDLMGKHGTSVSLARIAEAAGMSKGGLLHHFPSRNDLIRALGED”, the “soluble fraction (log2)” value rises from -1.37 to 0.011.

First: HMGKVNTRNRNEGKFYKNGKKKPANWEYRFEAAPVNGKRQQISDAGYPTEKAAYEAGIAAYEKYNSAGSVN
Second: HMGKVTILSNPVKDALVIMGLHNAETIDVRLFDNTGRLVMQGSQSRMDISSLSPGLYILQVNGKILKVIK
The “soluble fraction (log2)” value of the first is higher: -0.0957 for the first, -3.2 for the second.

“HMGLASEVKTEDVLNEEKYDFEPDLIGNNNEAIYQNKQTGSYVLFDRNQNKVTKVLSAGEVLNHSKYNE” and “HMGLDQNTLDRVDDINDTLATGIEIGPETRGTIEELNETLANGLKAGFDEETLARVDELLRVVEDGLK” are within 0.2 log units of each other in “soluble fraction (log2)” value: -0.138 for the first, 0.0586 for the second.

First: HMGLGQRIKARREALGLSQARLGEAVGVSLQAVSNWERDEYLPDTARLPLIARALGLTPGQLME
Second: HMGLKDTEVYMPDVRGLIEEEAQTKLKASFLTMKVSYTSSDEVKKGYVISQAPSADSVVLKGASVTVIVS
The “soluble fraction (log2)” value of the first is higher: -0.182 for the first, -2.56 for the second.

Compared with “HMGLLVPELTAEENVSLAAMIAGVPRQQARSISADLLNRLGLGQMLDRRMGEMSGGQAQRVAIAPIYGKF”, “HMGLNVSYRMDGENVVETIIFSGATMIRTVTPTGTMTIKTIENGSTSTAKVNADYSVYKKIYEAQY” is lower in “soluble fraction (log2)” value: -0.408 for the first, -2.69 for the second.

Compared with “HMGLPLETVVTHATKLEIVRDGRVSGSIGLSAGVKVDVIALEGDNLQVRYRSLSGRVPVAHTGLAALA”, “HMGLPPIATGVNDNMSFSQAFAAARAEVGAGGAFEWHGRVYGTYYKNEWDGMSAQERHDFEIAAIRGS” is higher in “soluble fraction (log2)” value: -1.58 for the first, -0.0369 for the second.

“HMGLSIPLMGAKASDIEISTLNDEVQRKLKIIVKEQGHENLQRVVPLPSEAREIQAHFINGRLHLR” and “HMGLYPYSGTPADNQEANERRIFDIYSTHLERIFSDFSGATLRTKRLVLRLMQELVHSDPVRMAGILDEL” are within 0.2 log units of each other in “soluble fraction (log2)” value: 0.0158 for the first, 0.0962 for the second.

Going from “HMGMAQELMESRLTAVFTSGKDQLAVLQRKDGSTLKLGADSKPWRIESFDGRKAVFVSADQQRVERLL” to “HMGMGIGQIIKEKRTALKMTQNELAERLGVSQQSVTGWENNAAVPRESAVRGMMDIFGLSRNELFGEP”, the “soluble fraction (log2)” value rises from -0.342 to 0.389.

“HMGMMTLGQRIAQYRKAMGISQEELGGRLGVSRQAVSKWETDAAAPDMENLLALAREFGVSVAELTETP” and “HMGMTRPLFVTDPGLVRIGLVSPIFEKLGSGKLSPQLFDQVKEDPPEQTVFDGVEFARETGIDGVIGFG” are within 0.2 log units of each other in “soluble fraction (log2)” value: -0.187 for the first, 0.00642 for the second.

Compared with “HMGMVDKSMYSRYDVGDLVKVLRGPLEGSEGHITEINTDTGTVKVETVFFGRSTVVEVDFSEIDK”, “HMGNAQELQKKLEGLKGISGIEKLESDHYAEKYLVRITQPVDHKNPAAGTFTQRVIVAHVGFDRPTILVT” is higher in “soluble fraction (log2)” value: -1.37 for the first, 0.51 for the second.

Going from “HMGNHRNMSAEEEAAILAPFKARAEAGELVEISEIAKAYQSAVDHPISRGQIYFVLHRHGWRKV” to “HMGNIALAIARFREMIAEDPNLQPVRLHLAMALMADHQDEAARGQLEKLRSDQLPDDIRKIVDDALAALR”, the “soluble fraction (log2)” value falls from -1.2 to -1.46.

Compared with “HMGNIIITPNPASDFIKIISNSPIIKFGFYDIYGNTINKKFNDNSINISDLPVGMYLINLNERYFKLLK”, “HMGNIITQEAAVKLAQDRVPNATLVKIEYDFDDGRPVYEGELREGRWEYEFEIDAATGEFLKWEKD” is higher in “soluble fraction (log2)” value: -0.259 for the first, 0.0823 for the second.

“HMGNKWKPIILYLLSNGSMRFGMLNALIPTISKKVLTNQLKELENDGLLLRQSFAEIPPRVEYSLTEKA” and “HMGNLASGAYEQIKRRILSLEYLPGSILQERGLAEELGISRTPVREAIHRLSQEGWLKINSRKNIRVR” are within 0.2 log units of each other in “soluble fraction (log2)” value: -2.31 for the first, -2.32 for the second.

Compared with “HMGNLASRVAEQLLDKMRGDSLVPGTRLPSEIAMAKHFGVSRTVMREAIARLKADGLLETRRGSGAFVLAT”, “HMGNLEENFRLKAGTEDGAWEFIRYHLGKLPVVNESNGTAIVNAERQAFLLFDRMVAFHIQRGVMVPLSAP” is higher in “soluble fraction (log2)” value: -0.973 for the first, -0.0214 for the second.

First: HMGNLVDGINKKLTHVRDSLPEGYTLDEFKSAFQQQYPAAYDAYEGDKGKQFDKWLGNVIQSLPKK
Second: HMGNNSIDIKDVIYNLVEISQLQAFDIVKHFKTWENLVNKPDELDTVIDGDSDIVDRIKYKIKSLS
The “soluble fraction (log2)” value of the first is lower: 0.0554 for the first, 0.344 for the second.

Compared with “HMGNQALSSVLSDIAGIGPVKTKELLRVYPDLDSLRQAPVEEVAKVKGIGRQLAQKIHDHFSSR”, “HMGNRWENLISNKMIDDVDEELLRKYIAQAHDAGRIAISYTDRKTVLNQLELTDGDRLLNAGKVLFSD” is lower in “soluble fraction (log2)” value: -0.0292 for the first, -0.392 for the second.

First: HMGNTTEVLVATQDVKANTKIKESMFTTERVDTASLPDNYLSADSAKDVVGYYTYIGFTKGSVISKSNIAT
Second: HMGNVRSWKGWTSAGGTRVQMRQGDSINSMARRYGVPIQAIVAVNGIDDPAKVQPGQSVIIPTYVY
The “soluble fraction (log2)” value of the first is higher: 0.625 for the first, -0.29 for the second.

Going from “HMGNWEQQLRSWADGELATGKQDILTTAVPAFERALIETALSHTNGRKRDAAELLGWGRNTLTRKLKELGM” to “HMGNYEEAILAFEAAIKIDPKNADAYRKLAEAYEKTGDEDAALRTLETGAEATGDRELADLAEKKRQELDA”, the “soluble fraction (log2)” value rises from -0.401 to -0.0773.

Compared with “HMGPASTGAHQLGLKPGDEVTHRAWGEGVVTSTTGEGDRAEAVVDFDAVGEKRLLLAWAPLER”, “HMGPDTVDRTRRFKWVDNEVVVNFGKNAGRTLRDLAENDPGFLRWIVRSDFSDEVRTIANDALMGKFPTRK” is lower in “soluble fraction (log2)” value: 0.0111 for the first, -0.283 for the second.

Going from “HMGPEAFPVPYVVDIELDRAIYVIEQSGFIVGQKLEANDNNVPRGFVISQNPPAGTKLGPESIVDLVVSS” to “HMGPLDIAQLKSDFLGGDAQLARRAWDQLATKAGDEGRDFLISSLGSSDPQIRNRVALGIHES”, the “soluble fraction (log2)” value rises from -1.16 to 0.069.

Compared with “HMGPLTMGQRIVRLRTQAGLSQDALAEQLGVSRQSVSKWETDGSVPDLDRLVKLSKVFGVTLDELVKG”, “HMGPPAVGAKLQVLRQARKLSLDELSRRAGVSKSMLSQVERNLANPTVAVLWRLATALGVGLADFLSP” is lower in “soluble fraction (log2)” value: -0.202 for the first, -3.02 for the second.
